From publication PMC11429574, “Biophysical and Solution Structure Analysis of Critical Residues Involved in the Interaction between the PupB N-Terminal Signaling Domain and PupR C-Terminal Cell Surface Signaling Domain from Pseudomonas capeferrum” (Biomolecules, 2024)
Substitutions are numbered along the chain they refer to. In names and notes the source's numbering stands.

T1: PupB N-terminal signaling domain H72D (Pseudomonas capeferrum), P38047
T1 chain: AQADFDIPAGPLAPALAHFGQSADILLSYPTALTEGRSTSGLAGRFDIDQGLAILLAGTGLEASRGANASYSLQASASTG

B1: PupB N-terminal signaling domain Q69K (domain or fragment, Pseudomonas capeferrum)
chain: T1 chain with Q21K, D24H
notes: PupB of Pseudomonas capeferrum, N-terminal signaling domain, 82 residues; also called PupB NTSD Q69K; Q79K (misprint in two places); source: pET41 GST-PupB NTSD plasmid
B2: MBP-PupR C-terminal cell surface signaling domain (domain or fragment, Pseudomonas capeferrum)
chain: QDWRADYHSRIGEQRRLTLADGTQVQLNTDSALNVAFDQQARRLRLVRGEMLITRPALADSRPLWVDTEHGRLESTLAQFNVRLHGQHTQATVYQGSVALQPALHAYPPILLGAGEQASFNQQGLLARQAVAAVAPAWSQGMLVAQGQPLAAFIEDLARYRRGHLACDPALAGLRVSGTFPLENTDKIIAAVAETLQLEVQHFTRYWVTLKPRMA
notes: PupR, inner membrane sigma regulator (anti-sigma factor) of Pseudomonas capeferrum; periplasmic C-terminal cell surface signaling domain; residues A240 to A300 are named as interface residues; A TEV site lies between MBP and the domain; the MBP fusion was used uncleaved in the ITC for solubility and stability; also called MBP-PupR CCSSD; PupR CCSSD; not shown: MBP, N-terminal, kept

Tests used:
Test in all cases: ITC; MBP-PupR CCSSD (140-230 µM) titrated into PupB NTSD mutants (20-70 µM); 15 °C; 25 mM HEPES pH 7.5, 400 mM LiCl, 10% glycerol; triplicate, global single-site analysis (NITPIC, SEDPHAT)
[1] = biological target: B2; conditions: both partners purified
[2] = biological target: T1, PupB N-terminal signaling domain H72D …; conditions: remark: other sources report otherwise
[3] = biological target: B1; conditions: both partners purified

Kd [1] [µM]	Kd [2] [µM]	dH [2] [kcal/mol]	dH [3] [kcal/mol]	Binder
1.55				B1
	27.7	-23	-14.5	B2
